The text below walks through data of patent US20060008891A1, “Cathepsin G-related peptides as modulators of formylpeptide receptors (FPR)” (The Government of USA as repersented by the Secretary, …, priority 2004, published 2006).

Usually IC50 stands for the point on the concentration scale where inhibition reaches its midpoint. A high value points to lower potency. By Kd is commonly meant a measure of binding affinity in units of concentration. Read a high Kd as weaker binding.

In data set [1] the target is epitope-tagged human FPR stably expressed on rat basophilic leukemia (RBL) cells (ETFR cells) (human) (UniProt P21462). The experiment in a line: displacement of 3 nM ^3[H]-fMLF from ETFR cells, filter binding.
Data set [2] has as its target human formylpeptide receptor (FPR), native or wild type, on cells (human) (UniProt P21462). The experiment in a line: displacement of 3 nM ^3[H]-fMLF from human monocytes, filter binding.
Data set [3] deals with ERK1/2. The data set is described as follows: Phosphorylation of ERK1/2 in ETFR cells (Western blot). It counts as cell-based, rat. Conditions: ETFR cells; fMLF at 100 nM. Here is the method:
ETFR cells were plated in Petri dishes and cultured in DMEM at 37° C. in humidified 5% CO2 atmosphere for 48 h. After further culture in serum-free DMEM overnight, the cells were treated with stimulants for indicated time periods. The reaction was stopped by adding 1 ml ice-cold PBS, and the cells were lysed in 1×SDS lysis buffer (62.5 mM Tris-HCl, 2% w/v SDS, 10% glycerol, 50 mM DTT, pH 6.8) and harvested into tubes for sonication. Proteins (50 μg for each sample) were resolved by SDS-PAGE and transferred onto nitrocellulose membranes (Bio-Rad, Hercules, Calif.). The membranes were blocked for 2 h at room temperature in 3% non-fat milk prepared in Tris-buffered saline-T (10 mM Tris-HCl, pH 7.5, 150 mM NaCl, 0.1% Tween 20) and probed with anti-p-ERK1/2, p-p38 MAPK, or p-Akt (1:1000) at room temperature for 1-2 h or at 4° C. overnight. The membranes were then washed and incubated with horseradish peroxidase-conjugated secondary antibodies diluted in Tris-buffered saline-T for 1 h at room temperature. The immune complexes on the membranes were visualized using ECL reagents. Total ERK1/2, p38 MAPK, and Akt were visualized by stripping the same membrane and probing with antibodies against total ERK1/2, p38 MAPK, and Akt.

Data set [4] has as its system parental RBL cells. The experiment in a line: Chemotaxis assay, parental RBL cells. It counts as cell-based, rat. Conditions: parental RBL cells without FPR. The protocol: Human PBMC were isolated from leukopacks obtained through the courtesy of Transfusion Medicine Department, National Institutes of Health Clinical Center (Bethesda, Md.) by Ficoll-Hypaque density gradient centrifugation. Monocytes were purified from human PBMC by Percoll gradient to yield>90% pure preparations. […] H. Ali and R. Snyderman, Duke University (Durham, N.C.) and maintained in the presence of 0.8 mg/ml geneticin (G418, Life Technologies, Rockville, Md.) in DMEM supplemented with 10% FCS. B. Chemotaxis assay Migration of phagocytes and ETFR cells was assessed using a 48-well microchemotaxis chamber (Neuroprobe, Cabin John, Md.) as previously described (Hu et al. (2001) J Leukoc Biol 70 15512). Briefly, different concentrations of stimulants were placed in the wells of the lower compartment of the chamber, and 50 μl cells (1.5×10^6 cells/ml for monocyte and neutrophil, 1×10^6 ETFR cells/ml) were added to the wells of the upper compartment. The lower and upper compartments were separated by either a 5-μm (for monocyte) or a 10-μm pore size, collagen-coated (for ETFR cells) polycarbonate filter (Osmonics, Livermore, Calif.). After incubation at 37° C. in humidified air with 5% CO2 (60 min for neutrophils, 90 min for monocytes, 4.5 h for ETFR cells), the filter was removed and stained, and the cells migrating across the filter were counted with light microscopy. […]

Data set [5] deals with PKCζ. The data set is described as follows: PKCζ translocation in ETFR cells (confocal microscopy). The data set is classed as cell-based, rat. Conditions: 100 nM fMLF, 10 μg/ml CaG or PMA 500 nM, 37° C. 10 min. The protocol: (§1) ETFR cells were seeded on coverslips and cultured overnight in DMEM containing 1% FCS at 37° C. After further culture in FCS-free DMEM for 3 h, cells were treated with stimulants for indicated time periods at 37° C. and were then fixed in 4% paraformaldehyde for 5 min at room temperature. The cells were permeabilized with 0.2% Tween 20 for 30 min at 4° C. and the reaction was blocked with 5% goat normal serum for 15 min at room temperature. The rabbit anti-PKCα/β, δ, and ξ, antibodies (1:1000 in DPBS) were applied separately for 1 h at room temperature. After three rinses with DPBS, the cells were stained with FITC-labeled goat anti-rabbit secondary antibody (PharMingen, 1:1000 in DPBS) for 1 h at room temperature. The coverslips were mounted with an anti-fade, water-based mounting medium with Propidium Iodide (PI) (Vector Lab, Burlingamem, Calif.) and analyzed under a laser scanning confocal fluorescence microscope (Zeiss LSM510 NLO Meta, Jena, Germany). Excitation wavelengths 488 (for FITC) and 568 (for PI) nm were used to generate fluorescence emission in green and red, respectively.

For data set [6], the system named is PKCδ. The experiment in a line: PKCδ translocation in ETFR cells. It counts as cell-based, rat. As to conditions: 100 nM fMLF, 10 μg/ml CaG or PMA 500 nM, 37° C. 10 min. Here is the method: as §1, with “The cells were permeabilized with 0.2% Tween 20 for 30 min at 4° C. and the reaction was blocked with 5% goat normal serum for 15 min at room temperature.” left out, “Germany).” for “Germany). Excitation wavelengths 488 (for FITC) and 568 (for PI) nm were used to generate fluorescence emission in green and red, respectively.”

In data set [7] the test system is monocytes. The experiment in a line: Chemotaxis assay, monocytes. The data set is classed as cell-based, human. As to conditions: pre-incubation fMLF 100 nM or MMK-1 5 μM, 37° C. 30 min, washing; CaG 10 μg/ml. The protocol: Human PBMC were isolated from leukopacks obtained through the courtesy of Transfusion Medicine Department, National Institutes of Health Clinical Center (Bethesda, Md.) by Ficoll-Hypaque density gradient centrifugation. Monocytes were purified from human PBMC by Percoll gradient to yield>90% pure preparations. […] H. Ali and R. Snyderman, Duke University (Durham, N.C.) and maintained in the presence of 0.8 mg/ml geneticin (G418, Life Technologies, Rockville, Md.) in DMEM supplemented with 10% FCS. B. Chemotaxis assay Migration of phagocytes and ETFR cells was assessed using a 48-well microchemotaxis chamber (Neuroprobe, Cabin John, Md.) as previously described (Hu et al. (2001) J Leukoc Biol 70 15512). Briefly, different concentrations of stimulants were placed in the wells of the lower compartment of the chamber, and 50 μl cells (1.5×10^6 cells/ml for monocyte and neutrophil, 1×10^6 ETFR cells/ml) were added to the wells of the upper compartment. The lower and upper compartments were separated by either a 5-μm (for monocyte) or a 10-μm pore size, collagen-coated (for ETFR cells) polycarbonate filter (Osmonics, Livermore, Calif.). After incubation at 37° C. in humidified air with 5% CO2 (60 min for neutrophils, 90 min for monocytes, 4.5 h for ETFR cells), the filter was removed and stained, and the cells migrating across the filter were counted with light microscopy. The results are presented as the mean number of cells (±SD) in three high power fields (HPFs). […] After thorough washing with cold medium (RPMI 1640, 1% BSA), the cells were resuspended and assayed. To measure the effect of various signaling inhibitors, unless otherwise indicated, the cells were pre-incubated at 37° C. for 60 min with the inhibitors, and were then added to the upper wells of the chemotaxis chamber.

Data set [8] deals with PKCα/β. The data set is described as follows: PKCα/β translocation in ETFR cells. The data set is classed as cell-based, rat. As to conditions: 100 nM fMLF, 10 μg/ml CaG or PMA 500 nM, 37° C. 10 min. Here is the method:
as §1

The test system of data set [9] is PKC isozymes. The experiment in a line: PKC translocation in parental RBL cells. The data set is classed as cell-based, rat. As to conditions: 100 nM fMLF, 10 μg/ml CaG or PMA 500 nM, 37° C. 10 min.
For data set [10], the target named is T1, human formylpeptide receptor (FPR), native or wild type, on cells, P21462.
T1 chain: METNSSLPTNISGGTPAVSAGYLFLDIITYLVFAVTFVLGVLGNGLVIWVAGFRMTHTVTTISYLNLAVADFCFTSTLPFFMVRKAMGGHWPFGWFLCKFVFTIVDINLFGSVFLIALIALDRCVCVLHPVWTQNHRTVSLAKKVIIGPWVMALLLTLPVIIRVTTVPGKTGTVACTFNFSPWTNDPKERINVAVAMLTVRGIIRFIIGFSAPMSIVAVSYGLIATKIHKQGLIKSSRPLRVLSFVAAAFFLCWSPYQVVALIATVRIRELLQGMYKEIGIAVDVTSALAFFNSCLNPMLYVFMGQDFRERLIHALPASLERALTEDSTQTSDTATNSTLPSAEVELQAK

Data set [11] addresses T2, epitope-tagged human FPR stably expressed on rat basophilic leukemia (RBL) cells (ETFR cells), P21462.
T2 chain: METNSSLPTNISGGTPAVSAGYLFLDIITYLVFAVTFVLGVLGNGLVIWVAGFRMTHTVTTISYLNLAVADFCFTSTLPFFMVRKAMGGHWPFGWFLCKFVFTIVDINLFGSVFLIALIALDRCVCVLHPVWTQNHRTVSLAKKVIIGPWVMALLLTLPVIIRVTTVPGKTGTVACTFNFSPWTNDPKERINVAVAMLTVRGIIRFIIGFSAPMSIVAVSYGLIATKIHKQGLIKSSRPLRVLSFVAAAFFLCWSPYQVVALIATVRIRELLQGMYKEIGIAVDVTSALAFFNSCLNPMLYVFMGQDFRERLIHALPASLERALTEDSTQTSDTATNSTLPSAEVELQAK

In data set [12] the target is T3, epitope-tagged human FPR stably expressed on rat basophilic leukemia (RBL) cells (ETFR cells) (human, UniProt P21462 1-350).
T3 construct: whole, on cells; also called RBL cells transfected with FPR; not shown: neither its identity nor its position on FPR is stated
T3 sequence (looked up): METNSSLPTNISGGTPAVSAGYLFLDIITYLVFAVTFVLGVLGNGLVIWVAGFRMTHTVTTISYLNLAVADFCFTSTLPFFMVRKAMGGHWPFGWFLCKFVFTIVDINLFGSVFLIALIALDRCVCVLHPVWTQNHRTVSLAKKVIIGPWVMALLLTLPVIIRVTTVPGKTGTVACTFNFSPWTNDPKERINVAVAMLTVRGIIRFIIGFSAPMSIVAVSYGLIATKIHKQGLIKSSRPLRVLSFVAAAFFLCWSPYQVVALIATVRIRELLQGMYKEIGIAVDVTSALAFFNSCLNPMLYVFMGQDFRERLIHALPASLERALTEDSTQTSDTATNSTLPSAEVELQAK
The experiment in a line: binding of ^125I-CaG (25 nM) to ETFR cells with increasing unlabeled ligand, analysed with the LIGAND program.

In data set [13] the target is T4, human formylpeptide receptor (FPR), native or wild type, on cells (human, UniProt P21462 1-350).
T4 construct: whole, on cells; Used for assays on human monocytes and neutrophils (endogenous FPR) and on HEK293 cells transfected with wild type FPR
T4 sequence (looked up): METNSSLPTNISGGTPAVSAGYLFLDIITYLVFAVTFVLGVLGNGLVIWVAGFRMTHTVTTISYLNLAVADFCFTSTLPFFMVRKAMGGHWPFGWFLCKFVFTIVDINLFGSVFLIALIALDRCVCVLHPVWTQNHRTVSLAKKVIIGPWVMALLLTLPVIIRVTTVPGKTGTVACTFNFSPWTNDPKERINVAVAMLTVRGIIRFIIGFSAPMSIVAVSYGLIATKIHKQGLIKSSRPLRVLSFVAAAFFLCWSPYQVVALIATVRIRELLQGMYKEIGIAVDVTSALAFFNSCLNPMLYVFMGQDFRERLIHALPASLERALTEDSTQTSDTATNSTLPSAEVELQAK
The data set is described as follows: displacement of 3 nM ^3[H]-fMLF from human monocytes by unlabeled CaG, filter binding.
From the text: (§2) The cells were then filtered onto Whatman paper discs, which were air-dried and measured for Remission.

For data set [14], the target named is T3, epitope-tagged human FPR stably …. The data set is described as follows: displacement of 3 nM ^3[H]-fMLF from ETFR cells by unlabeled CaG, filter binding.
From the text: as §2

As to “synthetic N-formyl peptide fMLF (formyl-methionyl-leucyl-phenylalanine)”, the IC50 in [1] and in [2] was 3 nM throughout.
On to `CSCC[C@H](NC=O)C(=O)N[C@@H](CC(C)C)C(=O)N[C@@H](Cc1ccccc1)C(=O)O` [fMLF, formyl-methionyl-leucyl-phyenyalanine], for which the “time of maximal effect on p-ERK” value in data set [3] is given as 1 min. Besides, the “migration of parental RBL cells” value in data set [4] is “Neither CaG nor fMLF induced migration of parental RBL cells”. In addition, in data set [5], the “translocation of PKCζ” value is reported as “promoted the translocation of not only PKCξ, but also PKCα/β”. Also, in data set [6], the “translocation of PKCδ” value is on record as “did not induce translocation of PKCδ”. The “attenuation of monocyte chemotaxis to CaG after pre-incubation with agonist” value in data set [7] is recorded as “attenuated monocyte response to CaG”. Besides, in [8], the “translocation of PKCα/β” value was “promoted the translocation of not only PKCξ, but also PKCα/β”. In addition, the “PKC translocation in parental RBL cells” value in [9] is “Neither CaG nor fMLF stimulated PKC translocation in parental RBL cells”.

B1: Cathepsin G (CaG), purified from neutrophil granules (protein)
chain: IIGGRESRPHSRPYMAYLQIQSPAGQSRCGGFLVREDFVLTAAHCWGSNINVTLGAHNIQRRENTQQHITARRAIRHPQYNQRTIQNDIMLLQLSRRVRRNRNVNPVALPRAQEGLRPGTLCTVAGWGRVSMRRGTDTLREVQLRVQRDRQCLRIFGSYDPRRQICVGDRRERKAAFKGDSGGPLLCNNVAHGIVSYGKSSGVPPEVFTRVSSFLPWIRTTMRS
Take B1: in data set [10], the “monocyte migration (chemotaxis), concentration of maximal activity” value is “CaG dose-dependently induced monocyte migration (FIG. 1A), which reached maximal activity at a concentration of 5 µg/ml of the protein (200 nM)”. Moreover, the “phosphorylation of ERK1/2, p38 MAPK and Akt (Western blot)” value in [11] is “CaG also positively and rapidly (within 1-5 min) activated ERK1/2 (FIG. 5 A), p38 MAPK (FIG. 5 C), and Akt (FIG. 5 D)”.

B2: Cathepsin G (CaG), purified from neutrophil granules (enzyme)
chain: IIGGRESRPHSRPYMAYLQIQSPAGQSRCGGFLVREDFVLTAAHCWGSNINVTLGAHNIQRRENTQQHITARRAIRHPQYNQRTIQNDIMLLQLSRRVRRNRNVNPVALPRAQEGLRPGTLCTVAGWGRVSMRRGTDTLREVQLRVQRDRQCLRIFGSYDPRRQICVGDRRERKAAFKGDSGGPLLCNNVAHGIVSYGKSSGVPPEVFTRVSSFLPWIRTTMRS
modifications: iodinated (^125I, chloramine-T method) in the direct binding assay only
Take B2: in data set [12], the affinity, expressed as Kd, was 85 nM. Also, the IC50 in data set [13] and in [14] was 100 nM throughout.
